Assay: soluble on expression in E. coli; label from the status in PepcDB or PDB records

MGSDKIHHHHHHMSNKLTYIVASGDTYTSIVNKINQSTPLTVSQLADANPSIQANQLQIGQALDIPLSTDGLIPDDNPALLTPAAEFMGYWYPYSASCPKNATLSVALYGWGPQKVIEWGKQADVQSHLNGEKYLSFGGGSESGKFTEQALNEITTAITQGQIKGYDGIAYDVEVADANLGAQFANSFEAAKACGFKVLVTISHSAPYDVADKDQLMKSFFINPHIDILSPQLYSKGDESQNDYALTSGSSITWRDYASTKAAIVPSIVHASYYEAAKIYFKNQGVELSGYLQWK
soluble on expression in E. coli: not soluble

MEGVVRLEVPTPEEGFVNITRKVEAALSGHTGLVYLFVPHTTCGLTVQEGADPTVAQDLLGRLAELAPRHRPQDRHLEGNSHAHLKSLLTGVHLLLLAEKGRLRLGRWQQVFLAEFDGPRVREVWVRLL
soluble on expression in E. coli: soluble

MLRFGFAAVLLVLAGCSAPMGPEALGPGSYQAAPDPGPFLTPADAQRAFPAVVARVEPVAEAICRERTRGVPCDFQIAVDARPGLDPNAFQTLDDYGRPVIGLTLSLISDARNVDELAFVVGHETAHHILGHIPRQRETALTGAVLAGVLAQMGGADAQTIRSVQEFGANVGARSYSKNFELEADGLGTEIAIRAGYDPVHGAQFFTRLPDPGDTFLGSHPPNAQRIAAVRRAAESIGYVSAWLEHHHHHH
soluble on expression in E. coli: not soluble

MNISYIPEHIEQLTIMNVPEYYKINDNHAFIVRSKAETDFWLKTHYGFEVMNGHVFYNEMMTDFQAEVQLRMNPNSKFDQAGLFVMISENCWLKTSLEYIPEGPSHLGAVVTNNGYSDWSTQDYPTEAAKQQLRFRIIRKRGDYTIYVKKRHQWEQIRIAHLMEDIGNEPIKIGFYTCSPSKNKGFETEFLHFTIEELLEHHHHHH
soluble on expression in E. coli: soluble

MIATKDIRIEKDFLGEKEVPSIAYYGVQTLRAVENFPITGYRIHPSLITAMAIVKKAAALANMDTGYLAKDIGHEIAEAAQEIVDGKFHDQFIVDPIQGGAGTSINMNTNEVIANRALERMGYEKGEYAKISPNTHVNMAQSTNDAFPTGIHIATLMRLEELLITMEELHAAFRAKAKEFDHVIKMGRTHLQDAVPIRLGQEFEAYSRVLARDIKRIKQSRQHLYEVNMGATAVGTGLNANPTYIEQVVKHLRTFSGFPLVGAEHLVDATQNTDAYTEVSAALKVCMMNMSKIANDLRIMASGPRVGLAEIQLPARQPGSSIMPGKVNPVMAEVINQVAFQVIGNDHTICLASEAGQLELNVMEPVLVFNLIQSISIMNNGFRVFREYCIKGITANEELLKQYVEKSVGIITAVNPHIGYEAASRIAREAIETGKSVRELCLEHGVLTEEELDIILDPFEMTHPEIAGASLLKDKKM
soluble on expression in E. coli: not soluble

MFGRHSIIPNNQIGTASASAGEDHVSASATSGHIPYDDMEEIPHPDSIYGAASDLIPDGSQLVAHRSDGSELLVSRPPEGANQLTISFRGQVYVFDAVGADKVDAVLSLLGGSTELAPGPQVMELAQQQNHMPVVEYQSRCSLPQRAQSLDRFRKKRNARCFEKKVRYGVRQEVALRMARNKGQFTSSKMTDGAYNSGTDQDSAQDDAHPEISCTHCGISSKCTPMMRRGPSGPRTLCNACGLFWANRGTLRDLSKKTEENQLALMKPDDGGSVADAANNLNTEAASVEEHTSMVSLANGDNSNLLGDH
soluble on expression in E. coli: soluble

SSGHKCYPWDLQDRYAQDKSVVNKMQQKYWETKQAFIKATGKKEDEHVVASDADLDAKLELFHSIQRTCLDLSKAIVLYQKRICFLSQEENELGKFLRSQGFQDKTRAGKMMQATGKALCFSSQQRLALRNPLCRFHQEVETFRHRAISDTWLTVNRMEQCRTEYRGALLWMKDVSQELDPDLYKQMEKFRKVQTQVRLAKKNFDKLKMDVCQKVDLLGASRCNLLSHMLATYQTTLLHFWEKTSHTMAAIHESFKGYQPYEFTTLKSLQDPMKKLVEKEEKKKINQQESTDAAVQEPSQLISLEEENQRKESSSFKTEDGKSILSALDKGSTHTACSGPIDELLDMKSEEGACLGPVAGTPEPEGADKDDLLLLSEIFNASSLEEGEFSKEWAAVFGDGQVKEPVPTMALGEPDPKAQTGSGFLPSQLLDQNMKDLQASLQEPAKAASDLTAWFSLFADLDPLSNPDAVGKTDKEHELLNA
soluble on expression in E. coli: soluble

MVEAIIFDMDGVLFDTEKYYYDRRASFLGQKGISIDHLPPSFFIGGNTKQVWENILRDEYDKWDVSTLQEEYNTYKQNNPLPYKELIFPDVLKVLNEVKSQGLNIGLASSSVKADIFRALEENRLQAFFDIVLSGEEFKESKPNPEIYLTALKQLNVQASRALIIEDSEKGIAAGVAADVEVWAIRDNLFGMDQSAAKGLLDSLTDVLDLIK
soluble on expression in E. coli: not soluble

KKNNVYPELEAFIGKEIIFSDKNFNTVGNKAFKDQFLLISYVDSGNCTPCSLEKMQYMKTNKRRLLDTHTGVLMIVHEKDTFTVNEVFRQMHVSYPIFFDSLGCFKKENGIFDNPLYQDFVIDRSNKVVWLGNPLRNKQSWQQYEKAISMLMD
soluble on expression in E. coli: not soluble

MGSDKIHHHHHHMTNDPIVFQMSVVKNKPQSYRKDKNKDICPFCDVENLTDIYAKDGDIIWLHNKFPTLRDTLQTVLIESSDHNGDISTYTKKYNRKLLRFSLQCFERMNRDDKYQSVVWYKNYGPHSGGSLIHPHMQIVGFKNVDGYKYIHPNNFEGETLFDKDGVEVNVAEHPVQGYTELNINLLNRNSVDLWADWIQSGAKYLLNIMYDGRCDSYNLFFYPRNDEGICAKFITRFDAPPYFVGYKLSQVNDEMTLTKEARRFKEFYDNDSKIK
soluble on expression in E. coli: not soluble

MMRTVQLRTLRPCIRAQQQPVRPSTSATAAAATAPAPARKCPSSLFAKLGGREAVEAAVDKFYNKIVADPTVSTYFSNTDMKVQRSKQFAFLAYALGGASEWKGKDMRTAHKDLVPHLSDVHFQAVARHLSDTLTELGVPPEDITDAMAVVASTRTEVLNMPQQ
soluble on expression in E. coli: soluble

GAMSEAFHTHSGIGVPLRRSNVDTDQIIPAVFLKRVTRTGFEDGLFAGWRSDPAFVLNLSPFDRGSVLVAGPDFGTGSSREHAVWALMDYGFRVVISSRFGDIFRGNAGKAGLLAAEVAQDDVELLWKLIEQSPGLEITANLQDRIITAATVVLPFKIDDHSAWRLLEGLDDIALTLRKLDEIEAFEGA
soluble on expression in E. coli: soluble

HDNYADLSDTELTTLLRRYNIPHGPVVGSTRRLYEKKIFEYETQRRR
soluble on expression in E. coli: soluble

STMLRVRSRDGLERVSVDGPHITVSQLKTLIQDQLQIPIHNQTLSTNRNLLLAKSPSDFLAFTDMADPNLRISSLNLAHGSMVYLAYEGERTIRGGPAVTPAGSFGRKMTVEDLIARQMRVGRQEKAHCDSVSFDRDCANAFQHFVNESLAFAVKRGGFMYGNVSEDGQVEVNFIYEPPQQGMEDNLILMRDSEEEKRVDAIALGLGMRRVGFIFNQTVTQDKKEYTLSNVEVLLAAQLHAESELKEWVTAVVKLEINEDGGADVHFEPFQMSDMCVRLFKEGWFETEIGPEDDPKLSKLKKEVVVGVKDVKEVDNDFFLVLVKILDHQGPLSCTFPIENRNTQTTMRALKTHMERARSLPFVKRISDFHLLLFVAQFLDVSSDVPALAECVRLQSHVPEGYELLIDSMANTS
soluble on expression in E. coli: soluble

RVLNLEEGPDAFGDYAREKLFVRARFAARQVLDSYSHDIPEEFMASLRRRFEHDINADEDDDDAMTPEERRKIQERRFALFNKVRLEALYASQAELLRARSERDVDPMIVDEVLFEIDSQIIAAEKSTR
soluble on expression in E. coli: not soluble

MGLRRGWTPPWPLDLGIVLGPLRRGPGDPTFRTTPDGAVWRASRTPAGPGTLRVALRGGAVEAEAWGPGAEWLLHQLPEMLGSADDPDAFEPRHRLVAVTRHRRPGLRLTRTGLVLESLIPSVLEQKVTADEAYRAWRLLVRKFGEPAPGPVEGRMHVMPEPRTWALIPSWEWHRAGVDNKRASTILRAVRVAARLEQAMGMEPAQAQARLEVVSGIGPWTSAETVQRSHGAADSVTVGDLHLPRIVGYALAGDRDADDAAMLELLAPYAGQRHRAARLILLSGRTPPAAALEHHHHHH
soluble on expression in E. coli: not soluble

MVEKPDINYQNKNVLHEINICYLGIMNKSLIALGAQTARRFLSSSSKNTIGGGDANRADTGVLDGYHINPLEESDMTDRSRISMLSTEMLEAKQIGVRGLSCYGFRLLDGTFLYGPIALFPKTALSWRVPTPEDITPRSLALFAALEPKIDILVLGVGDKKNIDKVRASVAPFLREHKIGLEIMDTEDAIATFNFLNAEGRYVGAALYPPDDMVVTDKEYGRALALLKGWDTVEENPLLTGLSDTINGAEDLVKRLWSGDEKSWQSARQKVLESPSEREERMQQEMNDKEKKRIE
soluble on expression in E. coli: not soluble

FMDELVSLTYRSRVRLADPVADIVQIMRASRVRNLRLGITGILLYNGVHFVQTIEGPRSACDELFRLISADPRHQEILAFDLEPITARRFPDWSMRIVSRKELRALAPDLERLDLSGPEDVAELHRTIAASLSRGDA
soluble on expression in E. coli: soluble

MHTNERKTVVYEYQNEQEVVMKVKELELQGVRHDDIYVLAHEKHITKRIADDTNTNTIGVKEQGLGTSIINFFSKKGDELRNQMEEMGLSKEEANLYEEKLDQGKILLLVTAEVPMANDRQPQNYHSL
soluble on expression in E. coli: not soluble

ASNFEEFVLVDNGGTGDVKVAPSNFANGVAEWISSNSRSQAYKVTCSVRQSSANNRKYTVKVEVPKVATQVQGGVELPVAAWRSYMNMELTIPVFATNDDCALIVKALQGTFKTGNPIATAIAANSGIY
soluble on expression in E. coli: soluble

MSLGEKHHMVLNRDQGITTRFSPQQKRLQLSSPKPYLLFFFTASCGACKEAIPYLNAIEEQWGERFEVIGVLGGSRGIKSDLEFLKRHSIRFKVLSDPSSSDYLSRAVGGVMGVPLFFFFDETGAPKEHFLGLVPQRVLEEEVRSLLEGHHHHHH
soluble on expression in E. coli: soluble

MGSDKIHHHHHHMSNEQLADLTQPQRDRLAFVELRVRFIGEIRRQDLVTRFGIQSAAASRDLALYKELAPGNIDYDSKGKSYVLGPDFRPVFDFPPERVLSWLTQGFGDGEPMRLKAWVASESPSRLTHPDLDVLASVTRAIHQECPLGIEYHSISSGRTEREIVPFALIDNGLRWHVRAFDRKSQEFRDFVITRIKRPVLIRDAEVQSHERSDQDIQWTRIVELEMVPHPDQPRPEITEMDYGMVRGSLRMKLRAATAGYILRQWSVDCSPDHSLRGYEFRLWLKDHLALYGVKNAVLAPGYRSPDQNKGEQ
soluble on expression in E. coli: not soluble

MTRQERILQLPFFENKRELAEQVLKMEREEHVYLPDQFEIKQVPPYSFAEKEAIIGRIHEFYFVSIGSDGAWKYQLFKDEMKCREFFVTLSGITDQQIAFWFNNIELLKGA
soluble on expression in E. coli: not soluble

MIEIPSDLHKDLVPLVFLLGDWAGAGVHDFPGAEKCNFGQEVSFTHDGRDFLEYQSHTWVLDNDGNKVRPLESEHGFWRIDANRKVEVTMTRDDGVIEIWYGELADQKPQIDLVTDAVARTAASQPYTGGKRLYGYVKSDLMWVGEKQTPEVELRPYMSAHLKKVVTPEDVERWAKALPDDMPDDGIAFFKLEHHHHHH
soluble on expression in E. coli: not soluble

RLSEIFNSPEFAESKSKLTLALGQDITGQPVVTDLGKAPHLLVAGTTGSGKSVGVNAMILSMLFKAAPEDVRMIMIDPKMLELSIYEGIPHLLAPVVTDMKLAANALNWCVNEMEKRYRLMSFMGVRNLAGFNQKIAEAAARGEKIGNPFSLTPDDPEPLEKLPFIVVVVDEFADLMMTAGKKIEELIARLAQKARAAGIHLILATQRPSV
soluble on expression in E. coli: not soluble

GMQDERWNHPLYTTTAINDEELEGHAYIPGGLKVQTSSPMNDHPGTNPEQLLGLSLSTCLEATLEAVEKEHGLPHTGAVRVKVAFIGARAEYQFLVHAQVMVKGVDFDTAKAFTNEIENRCPVSKLLKNSGNYTIETVTDFKD
soluble on expression in E. coli: soluble

From the DeepSol protein solubility set
